The target of assay [1] is T1, mouse transferrin receptor (mouse, UniProt Q62351 1-763).
T1 construct: whole, on cells; Mouse fibroblasts were the source of the mouse TfR in the radio-receptor assay; also called mouse TfR; TfR
Briefly: radio-receptor assay on mouse fibroblasts, 4 C, displacement of [125I]-8D3 by unlabeled cTfRMAb, non-linear regression. The protocol: (§1) Mouse TfR radio-receptor assay. Mouse fibroblasts were plated in 24-well cluster dishes (100,000 cells/well) 24 hours before the radio-receptor assay (RRA) of TfRMAb binding to the mouse TfR. The medium was aspirated, the cells washed with phosphate buffered saline (PBS), and 500 μL was added to each well containing 0.15 μCi/mL of [¹²⁵I]-labeled rat 8D3 MAb, and 0.3 to 100 nM concentrations of either unlabeled rat 8D3 MAb or unlabeled cTfRMAb. Following incubation at 4 C for 120 min, the medium was aspirated, the plates washed with cold PBS containing 1% bovine serum albumin (BSA), and the monolayer was lysed with 0.2 mL/well of 1 N NaOH. An aliquot was removed for protein measurement using the bicinchoninic acid (BCA) assay, and the radioactivity in the lysate was determined with a Beckmann gamma counter. The % bound/mg protein was computed from the radioactivity in the cell lysate and the total radioactivity in the medium. The 8D3 self-inhibition binding data were fit by non-linear regression analysis yield either the KD of 8D3 self-inhibition in the binding assay, or the KI of cross-inhibition by the chimeric TfRMAb or the cTfRMAb fusion protein.

Assay [2] has as its target T1, mouse transferrin receptor. As to the kind of experiment: radio-receptor assay on mouse fibroblasts, self-inhibition of [125I]-8D3, non-linear regression. How it is done: as §1
(§2) Mouse fibroblasts were used as the source of the mouse TfR, and the ¹²⁵I-labeled rat 8D3 TfRMAb was used as the binding ligand. […]

The target in assay [3] is T1, mouse transferrin receptor. As to the kind of experiment: radio-receptor assay on mouse fibroblasts, 4 C, self-inhibition of [125I]-8D3 by unlabeled 8D3, non-linear regression. How it is done: as §1
Assay [4] concerns the target T2, fusion protein of human Fc and the human GFRalpha1 extracellular domain (human, UniProt P56159 25-429, limits assumed).
T2 construct: extracellular domain; Captured on ELISA wells by a mouse anti-human Fc antibody; The order of the parts follows the printed name GFRα1:Fc; also called GFRα1:Fc fusion protein; GFRα1 ECD; not shown: human Fc
T2 sequence (looked up): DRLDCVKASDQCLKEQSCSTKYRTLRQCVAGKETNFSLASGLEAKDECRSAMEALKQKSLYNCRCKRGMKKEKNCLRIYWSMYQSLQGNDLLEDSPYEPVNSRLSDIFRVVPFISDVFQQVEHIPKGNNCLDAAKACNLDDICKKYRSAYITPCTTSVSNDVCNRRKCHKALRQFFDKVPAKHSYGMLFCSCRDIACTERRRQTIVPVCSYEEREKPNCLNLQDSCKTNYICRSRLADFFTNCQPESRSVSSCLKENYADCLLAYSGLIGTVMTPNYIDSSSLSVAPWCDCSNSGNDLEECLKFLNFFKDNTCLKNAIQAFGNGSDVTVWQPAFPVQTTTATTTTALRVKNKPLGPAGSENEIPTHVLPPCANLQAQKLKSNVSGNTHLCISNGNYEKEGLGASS
Briefly: ELISA: GFRα1:Fc captured by mouse anti-human Fc, detection with goat anti-GDNF and rabbit anti-goat-AP; given as ED50. The text has this:
FIG. 10. (A) Outline of GFRα1 receptor binding assay. The GFRα1:Fc fusion protein is captured by a mouse anti-human (MAH) Fc antibody. The GDNF, or cTfRMAb-GDNF fusion protein, binds to the GFRα1, and this binding is detected with a goat anti-GDNF antibody and a rabbit anti-goat (RAG) antibody conjugated to alkaline phosphatase (AP). (B) Binding of either GDNF (top panel) or the cTfRMAb-GDNF fusion protein (bottom panel) to the GFRα1 extracellular domain (ECD) is saturable.
The cTfRMAb-GDNF fusion protein is a bi-functional molecule that binds 2 receptors (FIG. 8): (i) the brain capillary endothelial mouse TfR to cause RMT across the mouse BBB in vivo, and (ii) the GFRα1 on neurons, to cause therapeutic actions in brain behind the BBB. The bi-functionality of the cTfRMAb-GDNF fusion protein was tested with binding assays for both the human GFRα1 and the mouse TfR. A mouse anti-human Fc (MAH-Fc) is plated in ELISA wells and captures a fusion protein of human Fc and the human GFRα1 extracellular domain (ECD). The cTfRMAb-GDNF fusion protein, or mature human GDNF, is then added, and these molecules bind to the GFRα1 ECD in proportion to the affinity for this receptor. The binding of the GDNF or the cTfRMAb-GDNF fusion protein is then detected with a goat anti-GDNF antibody, and a rabbit anti-goat (RAG) IgG-alkaline phosphatase (AP) conjugate (FIG. 10A).
For orientation: In an ELISA, binding on a coated surface is turned into a signal by an enzyme label.

For assay [5], the target named is T1, mouse transferrin receptor. Briefly: radio-receptor assay on mouse fibroblasts, displacement of [125I]-8D3 by unlabeled cTfRMAb-GDNF, non-linear regression. The protocol:
as §1, §2

Values joined by “and” are separate entries in the source; they are usually repeats but may differ in a detail not shown here. Identical values can stand only once.

A word on the Ki: it is a dissociation constant, usually derived from enzyme kinetics or from competition with a known ligand. Low readings indicate a stronger hold on the target, high ones a looser hold on the target. As a reminder, the Kd is the constant that tells how readily two partners part at equilibrium. A lower Kd goes with higher affinity. In general, EC50 refers to the midpoint of the concentration-response curve. Read a low EC50 as a more potent agent.

T1 sequence (Q62351 whole entry): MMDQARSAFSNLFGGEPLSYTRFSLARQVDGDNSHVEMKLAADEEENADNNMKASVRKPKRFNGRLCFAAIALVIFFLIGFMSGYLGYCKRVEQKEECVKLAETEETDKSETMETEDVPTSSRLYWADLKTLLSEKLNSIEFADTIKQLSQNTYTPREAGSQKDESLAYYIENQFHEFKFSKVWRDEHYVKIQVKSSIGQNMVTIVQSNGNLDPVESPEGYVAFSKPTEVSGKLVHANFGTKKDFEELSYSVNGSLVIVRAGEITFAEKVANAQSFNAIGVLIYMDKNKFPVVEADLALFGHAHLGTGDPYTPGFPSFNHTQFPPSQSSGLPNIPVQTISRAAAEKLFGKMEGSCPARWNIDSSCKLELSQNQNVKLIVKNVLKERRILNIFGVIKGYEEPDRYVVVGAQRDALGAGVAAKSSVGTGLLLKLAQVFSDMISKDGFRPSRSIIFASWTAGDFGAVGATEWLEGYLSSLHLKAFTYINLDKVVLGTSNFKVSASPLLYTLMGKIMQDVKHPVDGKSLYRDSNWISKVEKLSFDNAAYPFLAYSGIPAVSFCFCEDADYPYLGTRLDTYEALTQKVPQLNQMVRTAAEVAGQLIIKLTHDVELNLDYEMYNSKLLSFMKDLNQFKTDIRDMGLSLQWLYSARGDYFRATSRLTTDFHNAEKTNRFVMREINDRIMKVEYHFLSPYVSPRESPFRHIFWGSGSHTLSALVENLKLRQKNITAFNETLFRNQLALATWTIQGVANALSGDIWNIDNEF

B1: chimeric monoclonal antibody against the mouse transferrin receptor (rat 8D3 variable regions, mouse IgG1/kappa constant regions) (antibody, V domains shown)
VH: EVQLVESGGGLVQPGNSLTLSCVASGFTFSNYGMHWIRQAPKKGLEWIAMIYYDSSKMNYADTVKGRFTISRDNSKNTLYLEMNSLRSEDTAMYYCAVPTSHYVVDVWGQGVSVTVSS
VL: DIQMTQSPASLSASLEEIVTITCQASQDIGNWLAWYQQKPGKSPQLLIYGATSLADGVPSRFSGSRSGTQFSLKISRVQVEDIGIYYCLQAYNTPWTFGGGTKLELKR
notes: also called chimeric TfRMAb; cTfRMAb
Turning to B1, the affinity in assay [1] corresponds to a Ki of 2.6 nM.

B2: rat 8D3 monoclonal antibody against the mouse transferrin receptor, hybridoma generated (antibody, V domains shown)
VH: EVQLVESGGGLVQPGNSLTLSCVASGFTFSNYGMHWIRQAPKKGLEWIAMIYYDSSKMNYADTVKGRFTISRDNSKNTLYLEMNSLRSEDTAMYYCAVPTSHYVVDVWGQGVSVTVSS
VL: DIQMTQSPASLSASLEEIVTITCQASQDIGNWLAWYQQKPGKSPQLLIYGATSLADGVPSRFSGSRSGTQFSLKISRVQVEDIGIYYCLQAYNTPWTFGGGTKLELK
modifications: In part of the assays the antibody carried 125I (radio-iodinated tyrosines); the letters do not show this.
notes: Rat hybridoma antibody purified on protein G; also called 8D3 MAb; 8D3 TfRMAb
For the molecule B2, the dissociation constant (Kd) in assay [2] was 5 nM and 3.2 nM; in assay [3], 2.3 nM.

B3: human mature 134 amino acid glial derived neurotrophic factor (ligand, UniProt P39905 78-211, looked up)
chain: SPDKQMAVLPRRERNRQAAAANPENSRGKGRRGQRGKNRGCVLTAIHLNVTDLGLGYETKEELIFRYCSGSCDAAETTYDKILKNLSRNRRLVSDKVGQACCRPIAFDDDLSFLDDNLVYHILRKHSAKRCGCI
notes: mature; also called GDNF; mature human GDNF
On to B3, for which the response in assay [4] was half-maximal at 1.03 nM (EC50).

B4: cTfRMAb-GDNF fusion protein (human mature GDNF fused to the carboxyl terminus of the heavy chain of the chimeric MAb against the mouse TfR) (other)
heavy: EVQLVESGGGLVQPGNSLTLSCVASGFTFSNYGMHWIRQAPKKGLEWIAMIYYDSSKMNYADTVKGRFTISRDNSKNTLYLEMNSLRSEDTAMYYCAVPTSHYVVDVWGQGVSVTVSSAKTTPPSVYPLAPGSAAQTNSMVTLGCLVKGYFPEPVTVTWNSGSLSSGVHTFPAVLQSDLYTLSSSVTVPSSTWPSETVTCNVAHPASSTKVDKKIVPRDCGCKPCICTVPEVSSVFIFPPKPKDVLTITLTPKVTCVVVDISKDDPEVQFSWFVDDVEVHTAQTQPREEQFNSTFRSVSELPIMHQDWLNGKEFKCRVNSAAFPAPIEKTISKTKGRPKAPQVYTIPPPKEQMAKDKVSLTCMITDFFPEDITVEWQWNGQPAENYKNTQPIMDTDGSYFVYSKLNVQKSNWEAGNTFTCSVLHEGLHNHHTEKSLSHSPGSSSSPDKQMAVLPRRERNRQAAAANPENSRGKGRRGQRGKNRGCVLTAIHLNVTDLGLGYETKEELIFRYCSGSCDAAETTYDKILKNLSRNRRLVSDKVGQACCRPIAFDDDLSFLDDNLVYHILRKHSAKRCGCI
light: DIQMTQSPASLSASLEEIVTITCQASQDIGNWLAWYQQKPGKSPQLLIYGATSLADGVPSRFSGSRSGTQFSLKISRVQVEDIGIYYCLQAYNTPWTFGGGTKLELKRADAAPTVSIFPPSSEQLTSGGASVVCFLNNFYPKDINVKWKIDGSERQNGVLNSWTDQDSKDSTYSMSSTLTLTKDEYERHNSYTCEATHKTSTSPIVKSFNRGEC
notes: Hetero-tetramer of 2 light chains and 2 fusion heavy chains; expressed in COS cells, purified on protein G; also called cTrFMAb-GDNF
In turn, B4 yielded a Ki in assay [5] of 3 nM. Also, in assay [4], the concentration giving a half-maximal response (EC50) was 2.55 nM.

The values above are taken from patent publication US20100077498A1 (published 2010).
